Assay results reported in publication PMC11829961 (Nature Communications, 2025).
Values belong to the molecule of their own block, whether it stands above or below them.

What was measured:
IL-36R (20-220)-His6-Avi = IL-36R (20-220)-His6-Avi (human, UniProt Q9HB29, biotin on the Avi tag (in vitro, BirA)); assay: crystal structure
[1] = patients who had received at least one dose; cited from earlier work
IL-36R (20-333)-His6-Avi = biological target: T1, IL-36R (20-333)-His6-Avi (human, UniProt Q9HB29 20-333, biotin on the Avi tag (in vitro, BirA)); assay: SPR
T1 sequence (looked up): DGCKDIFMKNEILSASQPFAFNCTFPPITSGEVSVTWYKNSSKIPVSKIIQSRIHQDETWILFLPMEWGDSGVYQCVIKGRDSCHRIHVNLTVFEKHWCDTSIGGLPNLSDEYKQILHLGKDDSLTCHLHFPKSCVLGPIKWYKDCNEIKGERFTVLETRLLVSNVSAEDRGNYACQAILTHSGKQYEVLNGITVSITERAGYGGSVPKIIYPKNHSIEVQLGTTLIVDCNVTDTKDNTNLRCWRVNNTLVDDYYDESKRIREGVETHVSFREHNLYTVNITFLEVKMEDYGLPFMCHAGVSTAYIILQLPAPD

binding result (IL-36R (20-220)-His6-Avi): binds
B1: spesolimab-Fab (Fab, V domains shown)
VH: QVQLVQSGAEVKKPGASVKVSCKASGYSFTSSWIHWVKQAPGQGLEWMGEINPGNVRTNYNENFRNKVTMTVDTSISTAYMELSRLRSDDTAVYYCTVVFYGEPYFPYWGQGTLVTVSS
VL: QIVLTQSPGTLSLSPGERATMTCTASSSVSSSYFHWYQQKPGQAPRLWIYRTSRLASGVPDRFSGSGSGTDFTLTISRLEPEDAATYYCHQFHRSPLTFGAGTKLEIK

B2: spesolimab: IL-36R blocking antibody, positive control; approved for flares of GPP (antibody, chains of the INN, looked up, V domains shown)
VH: QVQLVQSGAEVKKPGASVKVSCKASGYSFTSSWIHWVKQAPGQGLEWMGEINPGNVRTNYNENFRNKVTMTVDTSISTAYMELSRLRSDDTAVYYCTVVFYGEPYFPYWGQGTLVTVSS
VL: QIVLTQSPGTLSLSPGERATMTCTASSSVSSSYFHWYQQKPGQAPRLWIYRTSRLASGVPDRFSGSGSGTDFTLTISRLEPEDAATYYCHQFHRSPLTFGAGTKLEIK
anti-drug antibodies observed, patients [1]: 23 out of 50

Kd (IL-36R (20-333)-His6-Avi): ~600 nM
B3: Human IL-36α (aa 6–158) (ligand, UniProt Q9UHA7 6-158, looked up)
chain: KIDTPQQGSIQDINHRVWVLQDQTLIAVPRKDRMSPVTIALISCRHVETLEKDRGNPIYLGLNGLNLCLMCAKVGDQPTLQLKEKDIMDLYNQPEPVKSFLFYHSQSGRNSTFESVAFPGWFIAVSSEGGCPLILTQELGKANTTDFGLTMLF
